The target in this assay is human myosin VI heavy chain, full length, containing both the large-insertion (LI) and small-insertion (SI) regions (human) (UniProt Q9UM54). Put plainly: cryo-EM structure; single-particle cryo-EM of myosin VI/CaM in PB, TB + AMPPNP and PB + ATP, the three datasets combined; autoinhibited state, 3.54 Å (4.14 Å map with the SAH-E).
Sequence of human myosin VI heavy chain, full length, containing both the large-insertion (LI) and small-insertion (SI) regions (human) (Q9UM54 other isoform, or with tags, fused parts or gaps): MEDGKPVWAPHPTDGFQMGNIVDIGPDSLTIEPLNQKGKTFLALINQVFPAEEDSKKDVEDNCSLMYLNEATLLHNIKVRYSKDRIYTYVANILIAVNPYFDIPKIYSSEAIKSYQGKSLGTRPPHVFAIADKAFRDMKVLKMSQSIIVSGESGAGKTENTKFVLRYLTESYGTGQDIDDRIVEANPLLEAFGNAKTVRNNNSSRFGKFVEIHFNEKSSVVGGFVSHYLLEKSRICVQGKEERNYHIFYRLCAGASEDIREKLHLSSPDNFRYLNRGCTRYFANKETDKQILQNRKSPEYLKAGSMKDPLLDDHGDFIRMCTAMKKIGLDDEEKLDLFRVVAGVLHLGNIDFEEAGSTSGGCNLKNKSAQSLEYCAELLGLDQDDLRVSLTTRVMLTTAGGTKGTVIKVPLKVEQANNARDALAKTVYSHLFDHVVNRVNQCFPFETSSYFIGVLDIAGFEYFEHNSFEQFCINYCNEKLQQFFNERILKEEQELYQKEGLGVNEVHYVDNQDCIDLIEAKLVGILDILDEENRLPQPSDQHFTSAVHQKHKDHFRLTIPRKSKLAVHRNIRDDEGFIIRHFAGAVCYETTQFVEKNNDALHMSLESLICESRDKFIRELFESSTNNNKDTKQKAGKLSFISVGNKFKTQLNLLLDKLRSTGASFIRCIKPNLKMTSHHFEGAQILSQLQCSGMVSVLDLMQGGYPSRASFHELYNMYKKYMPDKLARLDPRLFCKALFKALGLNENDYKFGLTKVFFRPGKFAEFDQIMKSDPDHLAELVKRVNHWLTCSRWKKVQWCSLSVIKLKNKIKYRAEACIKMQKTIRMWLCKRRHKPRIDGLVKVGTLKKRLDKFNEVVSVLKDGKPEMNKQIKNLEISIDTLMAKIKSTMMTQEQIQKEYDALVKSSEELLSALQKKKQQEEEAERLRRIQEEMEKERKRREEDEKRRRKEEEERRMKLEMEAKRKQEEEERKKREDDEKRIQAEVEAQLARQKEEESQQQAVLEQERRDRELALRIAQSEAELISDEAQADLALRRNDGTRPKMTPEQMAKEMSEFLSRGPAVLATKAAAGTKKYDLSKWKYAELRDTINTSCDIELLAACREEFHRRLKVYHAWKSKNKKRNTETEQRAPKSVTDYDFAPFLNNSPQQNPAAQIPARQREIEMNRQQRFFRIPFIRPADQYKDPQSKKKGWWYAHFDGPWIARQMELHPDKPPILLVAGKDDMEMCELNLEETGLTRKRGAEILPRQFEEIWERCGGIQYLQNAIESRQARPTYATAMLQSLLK

Usually stoichiometry N stands for a count of units in the complex or per binding partner. With “calmodulin (CaM), light chain of myosin VI (from UniProt P0DP23 1-149) (natural protein)”, the stoichiometry N amounted to 2.

The record behind these values is article PMC10853514.
